Biological target: T1, GST-LuxR (Vibrio harveyi, UniProt P21308 1-205)
T1 sequence: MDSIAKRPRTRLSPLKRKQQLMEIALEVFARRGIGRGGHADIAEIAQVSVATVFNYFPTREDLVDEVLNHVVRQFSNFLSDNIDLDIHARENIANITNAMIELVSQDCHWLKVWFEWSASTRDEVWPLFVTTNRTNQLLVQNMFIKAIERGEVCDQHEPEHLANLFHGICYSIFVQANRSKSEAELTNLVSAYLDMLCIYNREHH
Test: fluorescence anisotropy; no thiophenone; Kd value only in Figure 4B; 30°C; annealing in NaCl-Tris-EDTA buffer; binding buffer, salt and pH not stated (as in ref 37); ex 480 nm, em 535 nm
Conditions: protein: recombinant; chain copies: 2; label: 5'-fluorescein on strand 1; blunt

B1: V. harveyi consensus LuxR binding sequence (dsDNA)
DNA 1: TATTGATAAATTTATCAATAA
DNA 2: TTATTGATAAATTTATCAATA
binding result: binds

Source: paper PMC3404956, “A Quorum Sensing-Disrupting Brominated Thiophenone with a Promising Therapeutic Potential to Treat Luminescent Vibriosis”
